The record followed here is patent US20110118131A1 (published 2011).

Substitutions are numbered along the chain they refer to. Numbers in names are those of the source.

For this experiment, the target named is T1, IL-1beta (UniProt P01584 117-269).
T1 construct: also called IL-1β
The experiment in a line: Biacore. In general terms: Surface plasmon resonance follows binding to a sensor surface in real time, without labels.

B1: XPA23 Fab, heavy chain G102W (Fab, V domains shown)
VH: EVQLLESGGGLVQPGGSLRLSCAASGFTFSKYFMFWVRQAPGKGLEWVSVISPSGGMTRYADSVKGRFTISRDNSKNTLYLQMNSLRAEDTAVYYCARVGYWGNSDYWGQGTLVTVSS
VL: DIQMTQSPSSVSASVGDRLTIICRASQDINRWLAWYQQTPGNAPKLLIHSATSLQSGVPSRFSGSGSGTDFTLTINSLQPEDFATYYCQQADSFPLTFGGGTKVEIK
On to B1, for which the binding result is recorded as “no binding”.

B2: XPA23 Fab, heavy chain K31Q (Fab, V domains shown)
VH: B1 VH with K31Q, W102G
VL: B1 VL
As for B2, the binding result is reported as “no binding”.

B3: XPA23 Fab, heavy chain I51W (Fab, V domains shown)
VH: B1 VH with I51W, W102G
VL: B1 VL
Turning to B3, the binding result was “no binding”.

B4: XPA23 Fab, heavy chain G103D (Fab, V domains shown)
VH: B1 VH with W102G, G103D
VL: B1 VL
Turning to B4, the binding result is on record as “no binding”.

B5: XPA23 Fab, heavy chain K31D (Fab, V domains shown)
VH: B1 VH with K31D, W102G
VL: B1 VL
On to B5, for which the “fold difference in affinity vs parental” value was found to be 0.04 fold.

B6: XPA23 Fab, heavy chain G103R (Fab, V domains shown)
VH: B1 VH with W102G, G103R
VL: B1 VL
Regarding B6, the binding result is “no binding”.

B7: XPA23 Fab, heavy chain I51H (Fab, V domains shown)
VH: B1 VH with I51H, W102G
VL: B1 VL
In the case of B7, the “fold difference in affinity vs parental” value worked out at 0.08 fold.

B8: XPA23 Fab, heavy chain K31R (Fab, V domains shown)
VH: B1 VH with K31R, W102G
VL: B1 VL
Consider B8, for which the “fold difference in affinity vs parental” value was 0.9 fold.

B9: XPA23 Fab, heavy chain K31N (Fab, V domains shown)
VH: B1 VH with K31N, W102G
VL: B1 VL
As for B9, the binding result is recorded as “no binding”.

B10: XPA23 Fab, heavy chain G102Y (Fab, V domains shown)
VH: B1 VH with W102Y
VL: B1 VL
For the molecule B10, the binding result is on record as “no binding”.

B11: XPA23 Fab, heavy chain K31E (Fab, V domains shown)
VH: B1 VH with K31E, W102G
VL: B1 VL
Regarding B11, the binding result is on record as “no binding”.

B12: XPA23 Fab, heavy chain G103F (Fab, V domains shown)
VH: B1 VH with W102G, G103F
VL: B1 VL
For the molecule B12, the binding result is reported as “no binding”.

B13: XPA23 Fab, heavy chain K31S (Fab, V domains shown)
VH: B1 VH with K31S, W102G
VL: B1 VL
For B13, the binding result is given as “no binding”.

B14: XPA23 Fab, heavy chain I51R (Fab, V domains shown)
VH: B1 VH with I51R, W102G
VL: B1 VL
Consider B14, for which the “fold difference in affinity vs parental” value was found to be 0.1 fold.

B15: XPA23 Fab, heavy chain I51F (Fab, V domains shown)
VH: B1 VH with I51F, W102G
VL: B1 VL
Consider B15, for which the “fold difference in affinity vs parental” value is 0.9 fold.

B16: XPA23 Fab, heavy chain K31Y (Fab, V domains shown)
VH: B1 VH with K31Y, W102G
VL: B1 VL
On to B16, for which the “fold difference in affinity vs parental” value came out at 0.04 fold.

B17: XPA23 Fab, heavy chain I51N (Fab, V domains shown)
VH: B1 VH with I51N, W102G
VL: B1 VL
In the case of B17, the “fold difference in affinity vs parental” value turned out to be 0.68 fold.

B18: XPA23 Fab, heavy chain G103E (Fab, V domains shown)
VH: B1 VH with W102G, G103E
VL: B1 VL
As for B18, the binding result is “no binding”.

B19: XPA23 Fab, heavy chain I51Q (Fab, V domains shown)
VH: B1 VH with I51Q, W102G
VL: B1 VL
Regarding B19, the “fold difference in affinity vs parental” value is 0.83 fold.

B20: XPA23 Fab, heavy chain K31H (Fab, V domains shown)
VH: B1 VH with K31H, W102G
VL: B1 VL
B20: the “fold difference in affinity vs parental” value worked out at 1.11 fold.

B21: XPA23 Fab, heavy chain M57D (Fab, V domains shown)
VH: B1 VH with M57D, W102G
VL: B1 VL
For B21, the binding result is listed as “no binding”.

B22: XPA23 Fab, heavy chain I51S (Fab, V domains shown)
VH: B1 VH with I51S, W102G
VL: B1 VL
As to B22, the “fold difference in affinity vs parental” value came out at 0.69 fold.

B23: XPA23 Fab, heavy chain I51D (Fab, V domains shown)
VH: B1 VH with I51D, W102G
VL: B1 VL
Consider B23, for which the “fold difference in affinity vs parental” value worked out at 0.07 fold.

B24: XPA23 Fab, heavy chain K31F (Fab, V domains shown)
VH: B1 VH with K31F, W102G
VL: B1 VL
As to B24, the “fold difference in affinity vs parental” value amounted to 0.05 fold.

B25: XPA23 Fab, heavy chain G103K (Fab, V domains shown)
VH: B1 VH with W102G, G103K
VL: B1 VL
Regarding B25, the binding result was “no binding”.

B26: XPA23 Fab, heavy chain G103W (Fab, V domains shown)
VH: B1 VH with W102G, G103W
VL: B1 VL
For the molecule B26, the binding result was “no binding”.

B27: XPA23 Fab, heavy chain I51Y (Fab, V domains shown)
VH: B1 VH with I51Y, W102G
VL: B1 VL
As to B27, the “fold difference in affinity vs parental” value was found to be 1.75 fold.

B28: XPA23 Fab, heavy chain K31W (Fab, V domains shown)
VH: B1 VH with K31W, W102G
VL: B1 VL
B28: the “fold difference in affinity vs parental” value was found to be 0.84 fold.

B29: XPA23 Fab, heavy chain G103Q (Fab, V domains shown)
VH: B1 VH with W102G, G103Q
VL: B1 VL
As for B29, the binding result is recorded as “no binding”.

B30: XPA23 Fab, heavy chain I51K (Fab, V domains shown)
VH: B1 VH with I51K, W102G
VL: B1 VL
For the molecule B30, the “fold difference in affinity vs parental” value stood at 0.11 fold.

B31: XPA23 Fab, heavy chain I51E (Fab, V domains shown)
VH: B1 VH with I51E, W102G
VL: B1 VL
Consider B31, for which the “fold difference in affinity vs parental” value came to 0.73 fold.
